B1: P1-068761_H100G_E100fF (antibody, V domains shown)
VH: EVQLVESGGGLVQPGKSLRLSCAASGFTLEDEAMHWVRQAPGKGLEWVSGINWNSEEIGYADSVKGRFTISRDNAKNSLYLQMNSLRTEDTALYYCAKVPGYSGGWIDAFDVWGQGTMVTVSS
VL: not shown
B2: P1-068761_E30D_E32Y (antibody, V domains shown)
VH: B1 VH with E30D, E32Y, G104H, F110E
VL: not shown
B3: P1-068761_E30D_E100fF (antibody, V domains shown)
VH: B1 VH with E30D, G104H
VL: not shown
B4: P1-068761_E32Y_E55A (antibody, V domains shown)
VH: B1 VH with E32Y, E56A, G104H, F110E
VL: not shown
B5: P1-068761_E32Y (antibody, V domains shown)
VH: B1 VH with E32Y, G104H, F110E
VL: not shown
B6: P1-068761_E32Y_E100fF (antibody, V domains shown)
VH: B1 VH with E32Y, G104H
VL: not shown
B7: P1-068761_E56N_E100fF (antibody, V domains shown)
VH: B1 VH with E57N, G104H
VL: not shown
B8: P1-061029.IgG1.3 (antibody, V domains shown)
VH: B1 VH with E30D, E32Y, E56A, E57N
VL: not shown
B9: P1-068761_E32Y_H100G (antibody, V domains shown)
VH: B1 VH with E32Y, F110E
VL: not shown
B10: P1-068761_E100fF (antibody, V domains shown)
VH: B1 VH with G104H
VL: not shown
B11: P1-068761_E32Y_E56N (antibody, V domains shown)
VH: B1 VH with E32Y, E57N, G104H, F110E
VL: not shown
B12: P1-068761_E55A_E100fF (antibody, V domains shown)
VH: B1 VH with E56A, G104H
VL: not shown
B13: P1-068767_D102V (antibody, V domains shown)
VH: B1 VH with E32Y, N52D, E57N, F110E
VL: not shown
B14: P1-070914 (P1-068767_E30D_D52N) (antibody, V domains shown)
VH: B1 VH with E30D, E32Y, E57N, F110E, V112D
VL: not shown
B15: P1-068767_D52N_D102V (antibody, V domains shown)
VH: B1 VH with E32Y, E57N, F110E
VL: not shown
B16: P1-068767_E55A_D102V (antibody, V domains shown)
VH: B1 VH with E32Y, N52D, E56A, E57N, F110E
VL: not shown
B17: P1-068767_E100fF (antibody, V domains shown)
VH: B1 VH with E32Y, N52D, E57N, V112D
VL: not shown
B18: P1-068767_D52N_E100fF (antibody, V domains shown)
VH: B1 VH with E32Y, E57N, V112D
VL: not shown
B19: P1-068767_E30D_D102V (antibody, V domains shown)
VH: B1 VH with E30D, E32Y, N52D, E57N, F110E
VL: not shown
B20: P1-068767_E30D_E100fF (antibody, V domains shown)
VH: B1 VH with E30D, E32Y, N52D, E57N, V112D
VL: not shown
B21: P1-070908 (P1-068767_E55A) (antibody, V domains shown)
VH: B1 VH with E32Y, N52D, E56A, E57N, F110E, V112D
VL: not shown
B22: P1-070922 (P1-068767_E30D_E55A) (antibody, V domains shown)
VH: B1 VH with E30D, E32Y, N52D, E56A, E57N, F110E, V112D
VL: not shown
B23: P1-068767_E100fF_D102V (antibody, V domains shown)
VH: B1 VH with E32Y, N52D, E57N
VL: not shown
B24: P1-070916 (P1-068767_D52N_E55A) (antibody, V domains shown)
VH: B1 VH with E32Y, E56A, E57N, F110E, V112D
VL: not shown
B25: P1-070904 (P1-068767_E30D) (antibody, V domains shown)
VH: B1 VH with E30D, E32Y, N52D, E57N, F110E, V112D
VL: not shown
B26: P1-068767_E55A_E100fF (antibody, V domains shown)
VH: B1 VH with E32Y, N52D, E56A, E57N, V112D
VL: not shown
B27: P1-070906 (P1-068767_D52N) (antibody, V domains shown)
VH: B1 VH with E32Y, E57N, F110E, V112D
VL: not shown
B28: P1-068761.IgG1.3 (antibody, V domains shown)
VH: B1 VH with G104H, F110E
VL: not shown
B29: P1-070878 (P1-068761_E55A_E56N) (antibody, V domains shown)
VH: B1 VH with E56A, E57N, G104H, F110E
VL: not shown
B30: P1-070872 (P1-068761_H100G) (antibody, V domains shown)
VH: B1 VH with F110E
VL: not shown
B31: P1-068761_E30D_E56N (antibody, V domains shown)
VH: B1 VH with E30D, E57N, G104H, F110E
VL: not shown
B32: P1-070890 (P1-068761_E30D_E55A) (antibody, V domains shown)
VH: B1 VH with E30D, E56A, G104H, F110E
VL: not shown
B33: P1-070864 (P1-068761_E30D) (antibody, V domains shown)
VH: B1 VH with E30D, G104H, F110E
VL: not shown
B34: P1-070868 (P1-068761_E55A) (antibody, V domains shown)
VH: B1 VH with E56A, G104H, F110E
VL: not shown
B35: P1-070900 (P1-068761_E56N_H100G) (antibody, V domains shown)
VH: B1 VH with E57N, F110E
VL: not shown
B36: P1-070870 (P1-068761_E56N) (antibody, V domains shown)
VH: B1 VH with E57N, G104H, F110E
VL: not shown
B37: P1-068761_E30D_H100G (antibody, V domains shown)
VH: B1 VH with E30D, F110E
VL: not shown

Where a chain is given by its changes, count along the chain named.

The target of the first test is T1, monovalent hVISTA-ECD (amino acids 32-193 of SEQ ID NO: 1 with a 7xHis tail) (UniProt Q9H7M9 33-193). Briefly: SPR; pH 7.4.
T1 sequence (Q9H7M9 other isoform, or with tags, fused parts or gaps): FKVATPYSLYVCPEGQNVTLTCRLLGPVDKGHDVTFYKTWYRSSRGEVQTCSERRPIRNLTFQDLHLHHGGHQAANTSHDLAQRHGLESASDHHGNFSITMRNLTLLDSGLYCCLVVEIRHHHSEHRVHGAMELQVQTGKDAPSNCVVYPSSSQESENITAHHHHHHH
B1 had a dissociation constant (Kd) of 41 nM.
Same read-out and setting: the value for B2 was 21 nM.
Still for that read-out and setting: the value for B3 was 48 nM.
The same measure, in the same setting: then B4, with 23 nM; and B5, with 18 nM.
The molecule B6 had a Kd of 3.7 nM.
On the same count and under the same terms, the value for B7 was 65 nM.
Same read-out and setting: then B8, with 32 nM; and B9, with 72 nM; and B10, with 20 nM.
The same measure, in the same setting: then B11, with 42 nM.
B12 came in with a Kd of 14 nM.

Another test has as its target T1, monovalent hVISTA-ECD (amino acids …). Briefly: SPR; pH 6.0.
Turning to B13, the dissociation constant Kd was 1.3 nM.
The same measure, in the same setting: then B14, with 5.8 nM; and B15, with 0.88 nM; and B16, with 1.9 nM.
In turn, B17 had a Kd of roughly 42 nM.
For B18, the dissociation constant (Kd) was found to be 20 nM.
Still for that read-out and setting: the value for B19 was 2.1 nM; that for B20 was roughly 82 nM; that for B21 was 5.7 nM.
In turn, B22 yielded a dissociation constant Kd of 8.3 nM.
The molecule B23 showed a Kd of 2.7 nM.
Turning to B24, binding was put at a Kd of 4 nM.
Molecule B25 returned a Kd of 9.6 nM.
For B26, the Kd came out at 62 nM.
On to B27, for which the Kd is 3.2 nM.

The target is the same in another test. Briefly: SPR; pH 7.4. This is another data set of the same source.
In the case of B13, the dissociation constant (Kd) is 170 nM.
In turn, B15 came in with a Kd of 87 nM.
Same read-out and setting: then B16, with 280 nM; and B19, with 220 nM; and B23, with 41 nM.
On the same count and under the same terms, then B8, with 32 nM.

The target is the same in the next test. In words: SPR; pH 6.0. The source holds these as a separate data set.
As to B1, binding was characterised by a dissociation constant (Kd) of 0.23 nM.
Still for that read-out and setting: then B28, with 2.6 nM.
B29 showed a Kd of 21 nM.
The same measure, in the same setting: the value for B2 was 0.24 nM; that for B30 was 4.4 nM; that for B3 was 0.43 nM.
On the same count and under the same terms, the value for B4 was 0.31 nM; that for B31 was 50 nM.
On the same count and under the same terms, the value for B32 was 12 nM; that for B5 was 0.21 nM.
B33 came in with a dissociation constant (Kd) of 8.3 nM.
B6 displayed a Kd of 0.25 nM.
The same measure, in the same setting: then B34, with 3.4 nM; and B35, with 10 nM; and B36, with 19 nM.
Same read-out and setting: then B7, with 1.4 nM; and B37, with 15 nM.
Still for that read-out and setting: the value for B9 was 0.48 nM; that for B10 was 0.19 nM; that for B11 was 1.2 nM.
B12 showed a Kd of 0.26 nM.

For the next test the target is unchanged. Briefly: SPR; pH 6.7.
In the case of B13, the dissociation constant (Kd) came out at 14 nM.
On the same count and under the same terms, the value for B14 was 120 nM; that for B15 was 7.5 nM; that for B16 was 15 nM.
The same measure, in the same setting: then B17, with 5200 nM.
On the same count and under the same terms, the value for B18 was roughly 39 nM; that for B19 was 17 nM.
B20 displayed a Kd of 10000 nM.
On the same count and under the same terms, the value for B21 was 380 nM; that for B23 was 11 nM.
Consider B8, for which binding was characterised by a dissociation constant (Kd) of 11 nM.
On the same count and under the same terms, then B24, with 120 nM; and B27, with 210 nM.

For a further test the target is unchanged. In words: SPR; pH 6.7. The source holds these as a separate data set.
Regarding B1, binding was put at a Kd of 2.3 nM.
On to B28, for which the dissociation constant (Kd) came to 71 nM.
As to B29, binding was put at a Kd of 210 nM.
The same measure, in the same setting: then B2, with 2 nM.
Same read-out and setting: the value for B30 was 230 nM; that for B3 was 3.7 nM.
With B4, the dissociation constant Kd came to 2 nM.
On to B31, for which the Kd is roughly 32 nM.
In the case of B32, the Kd is roughly 110 nM.
Still for that read-out and setting: then B5, with 1.6 nM; and B33, with 370 nM; and B6, with 1.1 nM.
On the same count and under the same terms, the value for B34 was 120 nM; that for B36 was roughly 8200 nM.
On the same count and under the same terms, then B7, with 6.5 nM; and B8, with 11 nM.
On to B37, for which the dissociation constant (Kd) was roughly 81 nM.
In turn, B9 showed a dissociation constant (Kd) of 5 nM.
Still for that read-out and setting: the value for B10 was 1.3 nM; that for B11 was 5.1 nM; that for B12 was 1.5 nM.
